Experimental data taken from US20220332818A1 (AstraZeneca / MedImmune, published 2022).

Molecular target: T1, TIM-3 IgV domain (human) (human, UniProt Q8TDQ0 22-130)
T1 construct: also called IgV domain of TIM-3; human TIM-3 IgV
T1 sequence: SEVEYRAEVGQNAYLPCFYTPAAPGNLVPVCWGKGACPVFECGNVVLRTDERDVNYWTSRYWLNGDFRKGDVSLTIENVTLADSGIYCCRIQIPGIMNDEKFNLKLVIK
Experiment: co-crystal X-ray structure
Description: To obtain the co-crystal structure of the TIM-3 IgV domain with antigen-binding fragments (Fabs), all proteins were expressed in mammalian cells and purified to homogeneity. Purified TIM-3 IgV domain and Fabs (one at a time) were incubated at a slight excess of IgV domain, followed by size exclusion purification of the complex. Crystallization of the complexes was performed at room temperature. The X-ray diffraction data was collected at the Stanford Synchrotron Radiation Lightsource (SSRL, Menlo Park, Calif., USA). Structures of the complexes were solved by molecular replacement.

binding result: binds
B1: Fab of anti-TIM3 antibody #62 (Fab, V domains shown)
VH: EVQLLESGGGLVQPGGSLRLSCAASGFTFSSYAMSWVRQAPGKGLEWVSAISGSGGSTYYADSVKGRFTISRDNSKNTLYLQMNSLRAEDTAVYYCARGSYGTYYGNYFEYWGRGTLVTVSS
VL: QTVLTQPPSVSVAPGKTASISCGGDNIGGKSVHWYQQKPGQAPVLVIYYDSDRPSGIPQRFSGSNSGNTATLTIHRVEAGDEADYYCQVLDRRSDHWLFGGGTKLTVL
notes: Fab expressed in mammalian cells for co-crystallisation; also called clone 62
